Assay results published in patent publication US20260144854A1 (UNIVERSITY OF CHICAGO, published 2026).

T1: C-terminal domain of CD95 (amino acids 157-320; C-CD95), P25445
T1 chain: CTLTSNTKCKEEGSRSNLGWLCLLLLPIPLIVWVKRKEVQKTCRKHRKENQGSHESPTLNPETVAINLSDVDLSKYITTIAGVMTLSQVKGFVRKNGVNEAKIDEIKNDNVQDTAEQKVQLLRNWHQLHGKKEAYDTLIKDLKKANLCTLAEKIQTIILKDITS

T2: full length recombinant CD95 protein (FL-CD95), P25445
T2 chain: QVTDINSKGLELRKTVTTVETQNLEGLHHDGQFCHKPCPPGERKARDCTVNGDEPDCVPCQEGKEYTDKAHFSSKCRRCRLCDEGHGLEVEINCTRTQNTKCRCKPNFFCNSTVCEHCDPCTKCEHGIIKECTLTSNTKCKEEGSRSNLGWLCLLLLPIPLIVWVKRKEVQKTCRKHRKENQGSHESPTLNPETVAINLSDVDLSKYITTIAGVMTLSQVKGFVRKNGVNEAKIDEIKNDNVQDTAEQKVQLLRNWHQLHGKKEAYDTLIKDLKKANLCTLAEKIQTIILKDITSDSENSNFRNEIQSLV

T3: human neutrophil elastase (ELANE)
T3 chain: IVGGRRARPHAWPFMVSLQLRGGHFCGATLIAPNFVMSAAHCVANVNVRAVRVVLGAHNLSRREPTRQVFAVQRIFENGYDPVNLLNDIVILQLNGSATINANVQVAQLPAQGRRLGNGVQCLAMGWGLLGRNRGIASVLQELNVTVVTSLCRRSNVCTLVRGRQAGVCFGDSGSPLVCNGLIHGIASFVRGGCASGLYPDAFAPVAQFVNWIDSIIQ

T4: human neutrophil elastase (ELANE) (human, UniProt P08246 30-247)
T4 construct: Native protein: in human PMN conditioned media in the co-immunoprecipitation, purified native ELANE (Abcam) in the enzyme and cleavage assays; also called human ELANE
T4 sequence: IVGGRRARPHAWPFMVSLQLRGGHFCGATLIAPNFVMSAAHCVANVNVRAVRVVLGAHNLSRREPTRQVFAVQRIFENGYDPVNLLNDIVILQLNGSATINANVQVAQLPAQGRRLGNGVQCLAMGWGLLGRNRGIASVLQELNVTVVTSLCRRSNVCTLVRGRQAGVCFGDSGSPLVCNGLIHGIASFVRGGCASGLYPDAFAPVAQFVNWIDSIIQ


Tests used:
[1] = target: T1, C-terminal domain of CD95 (amino acids …)
[2] = target: alpha-1-anti-trypsin (A1AT), P01009
[3] = target: T2, full length recombinant CD95 protein …
[4] = target: T3, human neutrophil elastase (ELANE)
[5] = target: T4, human neutrophil elastase (ELANE); assay: from the inventors' studies of ECP as allosteric activator of ELANE (chromogenic substrate kinetics, FIG. 7); method of the KD not stated

Sequence of alpha-1-anti-trypsin (A1AT), P01009 (P01009 whole entry, looked up): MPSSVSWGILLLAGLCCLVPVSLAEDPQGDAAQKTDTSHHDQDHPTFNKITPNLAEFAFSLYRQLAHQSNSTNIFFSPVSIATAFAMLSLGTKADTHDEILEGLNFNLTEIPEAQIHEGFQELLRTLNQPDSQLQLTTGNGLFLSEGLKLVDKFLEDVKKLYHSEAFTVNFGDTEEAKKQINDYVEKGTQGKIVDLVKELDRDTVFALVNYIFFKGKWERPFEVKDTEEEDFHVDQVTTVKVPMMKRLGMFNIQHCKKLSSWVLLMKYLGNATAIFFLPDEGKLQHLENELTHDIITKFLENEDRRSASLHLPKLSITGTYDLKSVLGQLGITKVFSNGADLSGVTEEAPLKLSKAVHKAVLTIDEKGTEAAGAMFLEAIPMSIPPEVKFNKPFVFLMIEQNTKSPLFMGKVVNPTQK

| Binder | degradation of purified CD95 [3] | other results |
| --- | --- | --- |
| human neutrophil elastase (ELANE) (protein) IVGGRRARPHAWPFMVSLQLRGGHFCGATLIAPNFVMSAAHCVANVNVRAVRVVLGAHNLSRREPTRQVFAVQRIFENGYDPVNLLNDIVILQLNGSATINANVQVAQLPAQGRRLGNGVQCLAMGWGLLGRNRGIASVLQELNVTVVTSLCRRSNVCTLVRGRQAGVCFGDSGSPLVCNGLIHGIASFVRGGCASGLYPDAFAPVAQFVNWIDSIIQ | ELANE degrades the C-terminal domain of purified CD95 | degradation by SDS-PAGE followed by coomassie blue staining [1]: ELANE preferentially cleaves the C-terminal domain of CD95; ELANE catalytic activity (chromogenic substrate assay) [2]: loss of ELANE catalytic activity was confirmed by a chromogenic substrate assay |
| eosinophil cationic protein (ECP) (enzyme, also called ribonuclease 3) RPPQFTRAQWFAIQHISLNPPRCTIAMRAINNYRWRCKNQNTFLRTTFANVVNVCGNQSIRCPHNRTLNNCHRSRFRVPLLHCDLINPGAQNISNCTYADRPGRRFYVVACDNRDPRDSPRYPVVPVHLDTTI | – | kcat of ELANE for its substrate (chromogenic substrate activity assay) [4]: increases kcat for its substrate by 12-fold without altering KM; Kd [5]: ~20 nM |
| cathepsin G (CTSG) (protein) IIGGRESRPHSRPYMAYLQIQSPAGQSRCGGFLVREDFVLTAAHCWGSNINVTLGAHNIQRRENTQQHITARRAIRHPQYNQRTIQNDIMLLQLSRRVRRNRNVNPVALPRAQEGLRPGTLCTVAGWGRVSMRRGTDTLREVQLRVQRDRQCLRIFGSYDPRRQICVGDRRERKAAFKGDSGGPLLCNNVAHGIVSYGKSSGVPPEVFTRVSSFLPWIRTTMRS | cleaved purified CD95 with an identical degradation pattern to ELANE | – |
| proteinase 3 (PRTN3) (protein) IVGGHEAQPHSRPYMASLQMRGNPGSHFCGGTLIHPSFVLTAAHCLRDIPQRLVNVVLGAHNVRTQEPTQQHFSVAQVFLNNYDAENKLNDVLLIQLSSPANLSASVATVQLPQQDQPVPHGTQCLAMGWGRVGAHDPPAQVLQELNVTVVTFFCRPHNICTFVPRRKAGICFGDSGGPLICDGIIQGIDSFVIWGCATRLFPDFFTRVALYVDWIRSTLR | cleaved purified CD95 with an identical degradation pattern to ELANE | – |
| murine neutrophil elastase (mELANE) (protein) IVGGRPARPHAWPFMASLQRRGGHFCGATLIARNFVMSAAHCVNGLNFRSVQVVLGAHDLRRQERTRQTFSVQRIFENGFDPSQLLNDIVIIQLNGSATINANVQVAQLPAQGQGVGDRTPCLAMGWGRLGTNRPSPSVLQELNVTVVTNMCRRRVNVCTLVPRRQAGICFGDSGGPLVCNNLVQGIDSFIRGGCGSGLYPDAFAPVAEFADWINSIIRSHNDHLLTHPKDREGRTN | cleaved purified CD95 with an identical degradation pattern to ELANE | – |
